T1: pCold-TF-GPR37-1-613 full-length antigen (human, UniProt O15354 27-613)
T1 construct: Target fragment of Antigen 1 moved into the pCold-TF expression vector; also called Antigen 2; not shown: TF fusion partner encoded by the pCold-TF vector
T1 sequence: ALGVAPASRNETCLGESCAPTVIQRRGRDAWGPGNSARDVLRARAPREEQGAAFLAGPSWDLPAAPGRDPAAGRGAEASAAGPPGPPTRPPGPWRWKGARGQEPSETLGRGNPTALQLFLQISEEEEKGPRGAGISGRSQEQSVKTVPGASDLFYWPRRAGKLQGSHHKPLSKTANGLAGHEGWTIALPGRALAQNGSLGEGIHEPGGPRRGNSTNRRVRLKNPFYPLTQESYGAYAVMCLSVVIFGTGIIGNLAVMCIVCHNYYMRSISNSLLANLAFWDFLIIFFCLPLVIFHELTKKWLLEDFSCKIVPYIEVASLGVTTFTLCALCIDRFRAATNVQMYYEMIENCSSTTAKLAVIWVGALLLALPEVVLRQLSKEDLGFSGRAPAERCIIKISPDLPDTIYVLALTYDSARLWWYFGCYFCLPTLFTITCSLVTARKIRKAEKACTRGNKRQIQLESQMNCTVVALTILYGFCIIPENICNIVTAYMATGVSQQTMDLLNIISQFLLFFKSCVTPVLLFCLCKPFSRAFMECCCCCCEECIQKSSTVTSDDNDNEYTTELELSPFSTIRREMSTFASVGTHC

T2: pCold-TF-GPR37-1-265 extracellular segment protein (human, UniProt O15354 27-265)
T2 construct: also called Antigen 3; not shown: TF fusion partner encoded by the pCold-TF vector
T2 sequence: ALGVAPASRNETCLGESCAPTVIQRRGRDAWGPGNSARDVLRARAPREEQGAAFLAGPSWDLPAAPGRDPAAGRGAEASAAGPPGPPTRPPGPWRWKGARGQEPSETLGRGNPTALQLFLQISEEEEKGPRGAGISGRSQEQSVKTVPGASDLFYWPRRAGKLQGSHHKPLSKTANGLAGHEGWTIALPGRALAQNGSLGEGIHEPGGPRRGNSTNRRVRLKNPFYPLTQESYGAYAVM

T3: pET-32a-GPR37-1-613 full-length antigen (human, UniProt O15354 27-613)
T3 construct: Expressed in Escherichia coli from pET-32a and purified; also called Antigen 1; not shown: fusion partner/tags encoded by the pET-32a vector
T3 sequence: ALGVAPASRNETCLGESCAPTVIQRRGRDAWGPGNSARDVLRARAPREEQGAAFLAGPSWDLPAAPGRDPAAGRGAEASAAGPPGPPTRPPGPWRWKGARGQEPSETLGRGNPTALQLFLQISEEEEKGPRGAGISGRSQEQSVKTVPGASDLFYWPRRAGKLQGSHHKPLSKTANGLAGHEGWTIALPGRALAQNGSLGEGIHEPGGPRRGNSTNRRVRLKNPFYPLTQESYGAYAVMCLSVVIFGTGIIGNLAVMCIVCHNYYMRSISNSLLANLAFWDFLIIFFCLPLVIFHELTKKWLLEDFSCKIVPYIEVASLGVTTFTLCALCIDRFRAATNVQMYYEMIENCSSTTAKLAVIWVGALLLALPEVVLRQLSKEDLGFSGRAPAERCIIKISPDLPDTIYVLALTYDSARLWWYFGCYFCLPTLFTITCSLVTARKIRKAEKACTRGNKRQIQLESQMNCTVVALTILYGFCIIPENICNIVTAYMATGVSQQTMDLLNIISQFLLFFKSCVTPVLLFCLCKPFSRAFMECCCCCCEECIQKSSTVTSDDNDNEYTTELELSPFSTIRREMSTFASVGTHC


Columns and labels:
Assay in all cases: indirect ELISA, cell supernatant, antigen coated 200 ng/mL
[1] = biological target: T1, pCold-TF-GPR37-1-613 full-length antigen
Protocol: (§1) 3.6 Screening of hybridomas: Antigen 1 was used for primary screening, and two antigens that were also fused to pET-32a were used as accessory means for differential screening, in which both antigens were from Inbermax (Catalog No.: E11024, Catalog No.: E1212), and the self-made recombinant Antigen 2 and Antigen 3 were used at the same for identification. The screening method was an indirect ELISA, and its specific steps comprised: the plate was coated with the antigen at 200 ng/mL, 100 ul per well, added with 50 μL of cell supernatant, incubated at 37° C. for 30 minutes, washed 5 times with a plate washer, added with 100 ul of GAM-HRP prepared at 1:5K, incubated at 37° C. for 30 minutes, washed 5 times with a plate washer, added with a chromogenic solution at 100 ul/well, incubated at 37° C. for 15 minutes, added with a stop solution to terminated the reaction, and placed in a microplate reader to read signal values using dual wavelengths. Based on the experimental results, the cells in the corresponding positive wells were selected for the next step work.
(§2) 3.7 Cloning of hybridoma cells: Using the limiting dilution method, the cells were first diluted in gradient at certain concentrations, and then inoculated into each well of a 96-well cell culture plate, so that only one cell grew in the well as much as possible. The hybridoma monoclonal positive cell line was repeatedly cloned at least 3 times, and were confirmed as a stable clone after the final round was 100% positive. The positive standards were as described in 3.6.

[2] = biological target: T4, antigen fused to pET-32a from Inbermax, Catalog No.: E11024
T4 construct: Used for differential screening against the pET-32a fusion part
Protocol: as §1, §2

[3] = biological target: T5, antigen fused to pET-32a from Inbermax, Catalog No.: E1212
T5 construct: Used for differential screening against the pET-32a fusion part
Protocol: as §1, §2

[4] = biological target: T2, pCold-TF-GPR37-1-265 extracellular …
Protocol: as §1, §2

[5] = biological target: T3, pET-32a-GPR37-1-613 full-length antigen
Protocol: as §1, §2

Row | ELISA signal [1] | ELISA signal [2] | ELISA signal [3] | ELISA signal [4] | ELISA signal [5] | Binder
1 | 2.81 OD | 0.009 OD | 0.01 OD | 3.54 OD | 3.37 OD | monoclonal antibody 6D2 (antibody, IgG2a, V domains shown, Mouse hybridoma antibody; also called mAb 6D2) VH: EVMLVESGGGLVKPGGSLKLSCAASGFIFSSQAMSWVRQIPEKRLEWVATISSGGSYTYYPDSVKGRFTISRDNAKNTLYLQMSSLTSEDTAMYYCARQRDFGRYYGYDPFFDFWGQGTTLTF VL: EIVLTQSPTTMAASPGEKITITCSASSSISSNYLHWYQQKPGFSPKLLIYRTSNLPSGVPARFSGSGSGTSYSLTIGTMEAEDVATYYCQQGSSVPRITFGAGTKLE
2 | 6.24 OD | 0.008 OD | 0.011 OD | 3.37 OD | 2.83 OD | monoclonal antibody 5A2 (antibody, IgG2a, V domains shown, Mouse hybridoma antibody; also called mAb 5A2; 5A2-HRP) VH: EVKLVESGGGLVQPGGSLRLSCATSGFIFSDYYMSWVRQPPGKALEWLGYIRNKAKRYTTEYNASVKGRFTISRDNSQNILYLQMNTLRAEDSATYYCARDTSDYDRFAYWGQGTLVTVSA VL: DIVMTQTPLSLPVSLGDHASLSCKSSQSLVHRNGNTYLHWFLQKPGQSPKLLIYKVSNRFSGVPDRFSGSGSGTDFTLKISRVEAADLGVYFCSQSTLLPYTFGGGTKLEIK
